Results as given in patent US20250237662A1.

Columns and labels:
[1] = target: drug: a monoclonal antibody of human IgG4 isotype (PandA assay); assay: PandA assay, mAb 1 ug/ml in monkey plasma
[2] = target: drug: a monoclonal antibody of human IgG4 isotype (PandA assay); assay: PandA assay, mAb 0.5 ug/ml in monkey plasma
[3] = target: drug: a monoclonal antibody of human IgG4 isotype (PandA assay); assay: PandA assay, mAb 0.75 ug/ml in monkey plasma
[4] = target: drug: a monoclonal antibody of human IgG4 isotype (PandA assay); assay: PandA assay, signal to noise against the negative control
[5] = target: drug: a monoclonal antibody of human IgG4 isotype (PandA assay); assay: PandA assay (PEG precipitation, acid dissociation, MSD plate, sulfo-TAG-drug), mAb 5 ug/ml in monkey plasma
[6] = target: humanized development candidate monoclonal antibody IgG4 (hIgG4); assay: Gyrolab, capture reagent, hIgG4 8 ng/ml
[7] = target: humanized development candidate monoclonal antibody IgG4 (hIgG4); assay: Gyrolab, capture reagent, hIgG4 40 ng/ml
[8] = target: humanized development candidate monoclonal antibody IgG4 (hIgG4); assay: Gyrolab, capture reagent, hIgG4 1.6 ng/ml
[9] = target: humanized development candidate monoclonal antibody IgG4 (hIgG4); assay: Gyrolab, capture reagent, hIgG4 200 ng/ml
[10] = target: humanized development candidate monoclonal antibody IgG4 (hIgG4); assay: Gyrolab, capture reagent, hIgG4 0.32 ng/ml
[11] = target: humanized development candidate monoclonal antibody IgG4 (hIgG4); assay: Gyrolab, capture reagent, hIgG4 1000 ng/ml
[12] = target: humanized development candidate monoclonal antibody IgG4 (hIgG4); assay: Gyrolab, capture reagent, hIgG4 5000 ng/ml
[13] = target: humanized development candidate monoclonal antibody IgG4 (hIgG4); assay: Gyrolab, capture reagent, hIgG4 8 ng/ml, against the blank
[14] = target: humanized development candidate monoclonal antibody IgG4 (hIgG4); assay: Gyrolab, capture reagent, hIgG4 40 ng/ml, against the blank
[15] = target: humanized development candidate monoclonal antibody IgG4 (hIgG4); assay: Gyrolab, capture reagent, hIgG4 1.6 ng/ml, against the blank
[16] = target: humanized development candidate monoclonal antibody IgG4 (hIgG4); assay: Gyrolab, capture reagent, hIgG4 200 ng/ml, against the blank
[17] = target: humanized development candidate monoclonal antibody IgG4 (hIgG4); assay: Gyrolab, capture reagent, hIgG4 0.32 ng/ml, against the blank
[18] = target: humanized development candidate monoclonal antibody IgG4 (hIgG4); assay: Gyrolab, capture reagent, hIgG4 1000 ng/ml, against the blank
[19] = target: humanized development candidate monoclonal antibody IgG4 (hIgG4); assay: Gyrolab, capture reagent, hIgG4 5000 ng/ml, against the blank
[20] = target: humanized development candidate monoclonal antibody IgG4 (hIgG4); assay: Gyrolab, mAb as capture, hIgG4 8 ng/ml
[21] = target: humanized development candidate monoclonal antibody IgG4 (hIgG4); assay: Gyrolab, mAb as capture, hIgG4 40 ng/ml
[22] = target: humanized development candidate monoclonal antibody IgG4 (hIgG4); assay: Gyrolab, mAb as capture, hIgG4 1.6 ng/ml
[23] = target: humanized development candidate monoclonal antibody IgG4 (hIgG4); assay: Gyrolab, mAb as capture, hIgG4 200 ng/ml
[24] = target: humanized development candidate monoclonal antibody IgG4 (hIgG4); assay: Gyrolab, mAb as capture, hIgG4 0.32 ng/ml
[25] = target: humanized development candidate monoclonal antibody IgG4 (hIgG4); assay: Gyrolab, mAb as capture, hIgG4 1000 ng/ml
[26] = target: humanized development candidate monoclonal antibody IgG4 (hIgG4); assay: Gyrolab, mAb as capture, hIgG4 5000 ng/ml
[27] = target: humanized development candidate monoclonal antibody IgG4 (hIgG4); assay: SPR (Biacore T200), under the same conditions as the rabbit clones, antigen 80-0 nM, 1:1 fit
[28] = target: humanized therapeutic monoclonal antibody IgG1 (hIgG1); assay: as above

## mouse anti-Fc monoclonal antibody clone JDC-10 (Southern Biotech, Cat. No. 9040-01)
[1]
  ECL Signal: 182
[2]
  ECL Signal: 130
[3]
  ECL Signal: 148
[4]
  S/N: 1.37
[5]
  ECL Signal: 756

## Gyrolab generic PK assay capture reagent
[6]
  Av. Resp.: 9.3
[7]
  Av. Resp.: 26.1
[8]
  Av. Resp.: 5.3
[9]
  Av. Resp.: 94.1
[10]
  Av. Resp.: 4.6
[11]
  Av. Resp.: 267
[12]
  Av. Resp.: 468
[13]
  S/B: 2.1
[14]
  S/B: 5.7
[15]
  S/B: 1.2
[16]
  S/B: 20.8
[17]
  S/B: 1
[18]
  S/B: 59
[19]
  S/B: 103

## mouse anti-human IgG monoclonal antibody MCA5748G (Bio-Rad)
[20]
  Av. Resp.: 18.4
[21]
  Av. Resp.: 33.8
[22]
  Av. Resp.: 14.2
[23]
  Av. Resp.: 86.7
[24]
  Av. Resp.: 13.6
[25]
  Av. Resp.: 214
[26]
  Av. Resp.: 283
[27]
  Kd: 1.57 nM
[28]
  Kd: 1.82 nM
